The source of these data is publication PMC5727386.

Assay [1] has as its target Tyrosine phosphatase Sts1, Q8BGG7. The assay can be described thus: co-immunoprecipitation (anti-Bcr-Abl/Abl IP, Sts1 immunoblot, quantified). To be noted: chain shown with the change; BaF3 cells stably transduced with the Bcr-Abl variants; parent: est. 1.0; read off a plot. A general note: Immunoblotting shows a protein as a band on a membrane.
Assay [2] deals with monobody Mb(Bcr-PH_4), displayed on yeast surface. Nature of the assay: flow cytometry on cells; monobody displayed on yeast surface; biotinylated target 10 nM to 1 uM in TBS with 0.1% BSA, 30 min at RT; streptavidin-DyLight650; 1:1 binding model; apparent Kd. Background: Flow cytometry measures light scatter and fluorescence of single cells or particles in a stream.

Where a chain is given by its changes, count along the chain named. Names and notes keep the numbering of the source.

Tyrosine phosphatase Sts1, Q8BGG7, sequence (Q8BGG7 whole entry): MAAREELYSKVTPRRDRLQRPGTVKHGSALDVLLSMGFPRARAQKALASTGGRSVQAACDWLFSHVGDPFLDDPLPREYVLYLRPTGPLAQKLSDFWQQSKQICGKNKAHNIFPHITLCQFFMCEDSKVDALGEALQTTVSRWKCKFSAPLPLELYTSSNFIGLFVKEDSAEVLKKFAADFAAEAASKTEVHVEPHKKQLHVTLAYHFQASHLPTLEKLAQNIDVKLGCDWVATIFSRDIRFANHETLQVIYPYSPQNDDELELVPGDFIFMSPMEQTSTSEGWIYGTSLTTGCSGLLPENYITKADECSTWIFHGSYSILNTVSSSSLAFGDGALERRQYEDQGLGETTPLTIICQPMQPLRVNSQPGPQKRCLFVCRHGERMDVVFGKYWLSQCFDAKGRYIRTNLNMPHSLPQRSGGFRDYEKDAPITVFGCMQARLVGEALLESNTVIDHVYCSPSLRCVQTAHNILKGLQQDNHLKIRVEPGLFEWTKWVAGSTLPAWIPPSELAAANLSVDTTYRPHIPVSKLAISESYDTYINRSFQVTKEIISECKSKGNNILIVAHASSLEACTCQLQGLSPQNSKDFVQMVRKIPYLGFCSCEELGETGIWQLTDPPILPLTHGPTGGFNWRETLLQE

B1: Bcr-Abl p210, P11274 R726A (protein)
chain: MVDPVGFAEAWKAQFPDSEPPRMELRSVGDIEQELERCKASIRRLEQEVNQERFRMIYLQTLLAKEKKSYDRQRWGFRRAAQAPDGASEPRASASRPQPAPADGADPPPAEEPEARPDGEGSPGKARPGTARRPGAAASGERDDRGPPASVAALRSNFERIRKGHGQPGADAEKPFYVNVEFHHERGLVKVNDKEVSDRISSLGSQAMQMERKKSQHGAGSSVGDASRPPYRGRSSESSCGVDGDYEDAELNPRFLKDNLIDANGGSRPPWPPLEYQPYQSIYVGGMMEGEGKGPLLRSQSTSEQEKRLTWPRRSYSPRSFEDCGGGYTPDCSSNENLTSSEEDFSSGQSSRVSPSPTTYRMFRDKSRSPSQNSQQSFDSSSPPTPQCHKRHRHCPVVVSEATIVGVRKTGQIWPNDGEGAFHGDADGSFGTPPGYGCAADRAEEQRRHQDGLPYIDDSPSSSPHLSSKGRGSRDALVSGALESTKASELDLEKGLEMRKWVLSGILASEETYLSHLEALLLPMKPLKAAATTSQPVLTSQQIETIFFKVPELYEIHKEFYDGLFPRVQQWSHQQRVGDLFQKLASQLGVYRAFVDNYGVAMEMAEKCCQANAQFAEISENLRARSNKDAKDPTTKNSLETLLYKPVDRVTRSTLVLHDLLKHTPASHPDHPLLQDALRISQNFLSSINEEITPRRQSMTVKKGEHRQLLKDSFMVELVEGARKLAHVFLFTDLLLCTKLKKQSGGKTQQYDCKWYIPLTDLSFQMVDELEAVPNIPLVPDEELDALKIKISQIKNDIQREKRANKGSKATERLKKKLSEQESLLLLMSPSMAFRVHSRNGKSYTFLISSDYERAEWRENIREQQKKCFRSFSLTSVELQMLTNSCVKLQTVHSIPLTINKEDDESPGLYGFLNVIVHSATGFKQSSNLYCTLEVDSFGYFVNKAKTRVYRDTAEPNWNEEFEIELEGSQTLRILCYEKCYNKTKIPKEDGESTDRLMGKGQVQLDPQALQDRDWQRTVIAMNGIEVKLSVKFNSREFSLKRMPSRKQTGVFGVKIAVVTKRERSKVPYIVRQCVEEIERRGMEEVGIYRVSGVATDIQALKAAFDVNNKDVSVMMSEMDVNAIAGTLKLYFRELPEPLFTDEFYPNFAEGIALSDPVAKESCMLNLLLSLPEANLLTFLFLLDHLKRVAEKEAVNKMSLHNLATVFGPTLLRPSEKESKLPANPSQPITMTDSWSLEVMSQVQVLLYFLQLEAIPAPDSKRQSILFSTEV
As to B1, the ratio to parent in assay [1] was determined as 0.34.

B2: Bcr-Abl p210, P11274 R723A; K724A (protein)
chain: B1 chain with R723A, K724A, A726R
For the molecule B2, in assay [1], the ratio to parent came to 0.53.

B3: biotinylated Bcr-Abl PH domain (Avi-tag) (domain or fragment)
chain: GEHRQLLKDSFMVELVEGARKLRHVFLFTDLLLCTKLKKQSGGKTQQYDCKWYIPLTDLSFQMVDELEAVPNIPLVPDEELDALKIKISQIKNDIQREKRANKGSKATERLKKKLSEQESLLLLMSPSMAFRVHSRNGKSYTFLISSDYERAEWRENIREQQKKCFRSFSLTSVELQMLTNSCVKLQTVH
modifications: biotin on the Avi-tag
For the molecule B3, the Kd in assay [2] was found to be 33 nM.
